Data published in US20230374148A1, “BINDING MOLECULES THAT MULTIMERISE CD45” (UCB BIOPHARMA SRL, priority 2020, published 2023).

Key:
[1] = biological target: T1, human CD45 on cells (PBMC, whole blood cells, macrophages, leukaemia and lymphoma cell lines) (human, UniProt P08575 26-1306); assay: cell-based or functional assay
T1 sequence: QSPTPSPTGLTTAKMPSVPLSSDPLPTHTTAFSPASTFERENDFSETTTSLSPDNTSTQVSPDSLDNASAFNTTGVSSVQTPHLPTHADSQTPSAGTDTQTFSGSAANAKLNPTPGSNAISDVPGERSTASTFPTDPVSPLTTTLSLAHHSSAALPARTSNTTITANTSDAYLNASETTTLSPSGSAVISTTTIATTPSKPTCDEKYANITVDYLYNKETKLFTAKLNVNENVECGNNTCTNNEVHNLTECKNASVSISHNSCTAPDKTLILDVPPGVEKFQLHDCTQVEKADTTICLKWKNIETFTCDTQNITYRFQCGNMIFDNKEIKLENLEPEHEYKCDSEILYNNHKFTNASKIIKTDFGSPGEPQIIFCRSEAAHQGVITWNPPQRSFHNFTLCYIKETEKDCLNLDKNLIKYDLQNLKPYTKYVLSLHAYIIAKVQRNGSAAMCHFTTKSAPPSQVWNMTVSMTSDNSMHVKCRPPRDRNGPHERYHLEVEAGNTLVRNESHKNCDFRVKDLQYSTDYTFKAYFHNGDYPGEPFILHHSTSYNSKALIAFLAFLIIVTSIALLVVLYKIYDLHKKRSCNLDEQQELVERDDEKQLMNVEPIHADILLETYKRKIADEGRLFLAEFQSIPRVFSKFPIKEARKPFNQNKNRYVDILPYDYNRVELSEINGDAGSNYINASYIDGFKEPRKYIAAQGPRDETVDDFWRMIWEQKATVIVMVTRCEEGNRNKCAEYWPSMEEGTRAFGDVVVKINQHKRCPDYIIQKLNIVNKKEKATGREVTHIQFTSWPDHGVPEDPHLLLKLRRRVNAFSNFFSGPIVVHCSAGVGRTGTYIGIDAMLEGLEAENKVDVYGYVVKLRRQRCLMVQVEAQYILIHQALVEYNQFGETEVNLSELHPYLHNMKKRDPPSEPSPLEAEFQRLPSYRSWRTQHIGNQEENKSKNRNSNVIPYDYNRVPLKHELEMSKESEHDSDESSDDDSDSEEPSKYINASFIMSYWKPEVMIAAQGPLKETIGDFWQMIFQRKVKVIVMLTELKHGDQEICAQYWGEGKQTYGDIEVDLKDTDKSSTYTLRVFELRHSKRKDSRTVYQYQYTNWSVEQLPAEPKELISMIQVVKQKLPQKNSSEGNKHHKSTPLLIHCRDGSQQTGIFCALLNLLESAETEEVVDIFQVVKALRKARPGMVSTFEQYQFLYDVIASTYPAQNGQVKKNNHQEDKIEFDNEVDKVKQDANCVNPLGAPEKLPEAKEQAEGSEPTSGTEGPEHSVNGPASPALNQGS

[2] = biological target: T1, human CD45 on cells (PBMC, whole blood …); assay: cell-based or functional assay; remark: listed apart in the source
[3] = biological target: T1, human CD45 on cells (PBMC, whole blood …); assay: cell-based or functional assay; remark: listed apart in the source
[4] = biological target: T1, human CD45 on cells (PBMC, whole blood …); assay: cell-based or functional assay; remark: listed apart in the source
[5] = biological target: T2, CD45 domains 1-4 of the extracellular domain (UniProtKB P08575, residues 225-573) with C-terminal TEV cleavage site and 10-His tag (human); assay: sedimentation velocity analytical ultracentrifugation, molar 1:1 mixture of CD45 ECD and BYbe
[6] = biological target: T2, CD45 domains 1-4 of the extracellular domain; assay: mass photometry of the mixture of CD45 ECD and 4133-6294 BYbe, not pre-incubated [C]
[7] = biological target: T2, CD45 domains 1-4 of the extracellular domain; assay: mass of the peaks seen in the mixture of CD45 ECD and 4133-6294 BYbe in solution; theoretical mass 138 kDa
[8] = biological target: T2, CD45 domains 1-4 of the extracellular domain; assay: mass of the peaks seen in the mixture of CD45 ECD and 4133-6294 BYbe in solution; theoretical mass 276 kDa
[9] = biological target: T2, CD45 domains 1-4 of the extracellular domain; assay: mass of the peaks seen in the mixture of CD45 ECD and 4133-6294 BYbe in solution; theoretical mass 414 kDa
[10] = biological target: T2, CD45 domains 1-4 of the extracellular domain; assay: mass of the peaks seen in the mixture of CD45 ECD and 4133-6294 BYbe in solution; theoretical mass 552 kDa
[11] = biological target: T2, CD45 domains 1-4 of the extracellular domain; assay: sedimentation peaks of the mixture of CD45 ECD and 4133-6294 BYbe; stoichiometry assigned from modelled S values

B1: 4133-6294 BYbe (bispecific antibody)
heavy: QEQLVESGGGLVQPEGSLTLTCTASGFSFSGNYYMCWVRQAPGKGLEWIGCLYTGSSGSTYYASWAKGRFTISKTSSTTVTLQMTSLTAADTATYFCARDLGYEIDGYGGLWGQGTLVTVSSGQPKAPSVFPLAPCCGDTPSSTVTLGCLVKGYLPEPVTVTWNSGTLTNGVRTFPSVRQSSGLYSLSSVVSVTSSSQPVTCNVAHPATNTKVDKTVAPSTCSKPGGGGSGGGGSEVQLVESGAELARPGASVKMSCKASGYTFTSYTMHWVKQRPGQCLEWIGYINPSSGYTEYNQKFKDKTTLTADKSSSTAYLQLSSLTSEDSAVYYCARVGDGFYPSWLAYWGQGTLVTVSSGGGGSGGGGSGGGGSGGGGSDIQMTQSPKFLLVSAGDRVTITCKASQSVRNDVAWYQQKPGQSPKLLIFYASKRYTGVPDRFTGSGYGTDFTFTISTVQAEDLAVYFCQQDYSSPTTFGCGTKLEIK
light: AQVLTQTPSPVSAVVGGTVSISCQASQSVYNNNNLSWYQQKPGQPPKLLIYDASKLASGVPSRFKGSGSGTQFTLTISGVQCDDAATYYCLGGYYSSGWYFAFGGGTKVVVKRTPVAPTVLIFPPAADQVATGTVTIVCVANKYFPDVTVTWEVDGTTQTTGIENSKTPQNSADCTYNLSSTLTLTSTQYNSHKEYTCKVTQGTTSVVQSFNRGDC
EC50 of reduction of lymphocytes in PBMC, 24 h (UCB Cone-802) [1]: 0.15 nM | EC50 of reduction of lymphocytes in PBMC, 24 h (UCB Cone-811) [1]: 0.1 nM | EC50 of subset cell reduction, B cells in PBMC, 24 h [2]: 1.5 nM | EC50 of subset cell reduction, CD4+ Memory cells in PBMC, 24 h [2]: 0.222 nM | EC50 of subset cell reduction, CD4+ Naive cells in PBMC, 24 h [2]: 0.524 nM | EC50 of subset cell reduction, CD4+ cells in PBMC, 24 h [2]: 0.302 nM | EC50 of subset cell reduction, CD8+ cells in PBMC, 24 h [2]: 0.187 nM | EC50 of reduction, CD4+ cells in whole blood, 5 h, Donor 1 [3]: 0.25 nM | EC50 of reduction, CD4+ cells in whole blood, 5 h, Donor 2 [3]: 0.33 nM | EC50 of reduction, total lymphocytes in whole blood, 5 h, Donor 1 [3]: 0.37 nM | EC50 of reduction, total lymphocytes in whole blood, 5 h, Donor 2 [3]: 5.99 nM | EC50 of % cell reduction, CCRF-SB cells, 21 h [4]: 0.308 nM | EC50 of % cell reduction, Dakiki cells, 21 h [4]: 0.309 nM | EC50 of % cell reduction, Jurkat cells, 21 h [4]: 0.117 nM | EC50 of % cell reduction, MC116 cells, 21 h [4]: 0.005 nM | EC50 of % cell reduction, NU-DUL-1 cells, 21 h [4]: 0.497 nM | EC50 of % cell reduction, OCI-Ly3 cells, 21 h [4]: 0.349 nM | EC50 of % cell reduction, Raji cells, 21 h [4]: 0.397 nM | EC50 of % cell reduction, Ramos cells, 21 h [4]: 0.14 nM | EC50 of % cell reduction, SU-DHL-4 cells, 21 h [4]: 0.141 nM | EC50 of % cell reduction, SU-DHL-5 cells, 21 h [4]: 0.043 nM | EC50 of % cell reduction, SU-DHL-8 cells, 21 h [4]: 1.46 nM | EC50 of % cell reduction, THP-1 cells, 21 h [4]: 1.54 nM | Percentage of area under the curve (CD45 1:1 BYbe complex) [5]: 12% | Percentage of area under the curve (CD45 2:2 BYbe complex) [5]: 37.7% | Percentage of area under the curve (CD45 3:3 BYbe complex) [5]: 35.7% | Percentage of area under the curve (CD45 4:4 BYbe complex) [5]: 3.46% | Percentage of area under the curve (unbound CD45 in the 1:1 mixture) [5]: 9.21% | counts in the peak at 75 kDa (arrow from the BYbe schematic; unbound BYbe according to the text) [6]: 3830 counts | counts in the peak at 136 kDa, complex marked (1x) [6]: 3060 counts | counts in the peak at 274 kDa, complex marked (2x) [6]: 3510 counts | counts in the peak at 415 kDa, complex marked (3x) [6]: 464 counts | counts in the peak at 555 kDa, complex marked (4x) [6]: 137 counts | percent of counts in the peak at 75 kDa (arrow from the BYbe schematic; unbound BYbe according to the text) [6]: 31% | percent of counts in the peak at 136 kDa, complex marked (1x) [6]: 24% | percent of counts in the peak at 274 kDa, complex marked (2x) [6]: 28% | percent of counts in the peak at 415 kDa, complex marked (3x) [6]: 4% | percent of counts in the peak at 555 kDa, complex marked (4x) [6]: 1% | observed mass of the complex 1× (CD45 + BYbe) [7]: 136 kDa | observed mass of the complex 2× (CD45 + BYbe) [8]: 274 kDa | observed mass of the complex 3× (CD45 + BYbe) [9]: 415 kDa | observed mass of the complex 4× (CD45 + BYbe) [10]: 555 kDa | experimental S value of the complex CD45 1:1 BYbe [11]: 6.9 S | experimental S value of the complex CD45 2:1 BYbe [11]: 7.15 S | experimental S value of the complex CD45 2:2 BYbe [11]: 8.78 S | experimental S value of the complex CD45 3:3 BYbe [11]: 10 S | experimental S value of the complex CD45 4:3 BYbe [11]: 11.1 S | experimental S value of the complex CD45 4:4 BYbe [11]: 13.3 S
